Laboratory results: publication PMC12669767

T1: NEDD4, endogenous in HEK293T, P46934
T1 chain: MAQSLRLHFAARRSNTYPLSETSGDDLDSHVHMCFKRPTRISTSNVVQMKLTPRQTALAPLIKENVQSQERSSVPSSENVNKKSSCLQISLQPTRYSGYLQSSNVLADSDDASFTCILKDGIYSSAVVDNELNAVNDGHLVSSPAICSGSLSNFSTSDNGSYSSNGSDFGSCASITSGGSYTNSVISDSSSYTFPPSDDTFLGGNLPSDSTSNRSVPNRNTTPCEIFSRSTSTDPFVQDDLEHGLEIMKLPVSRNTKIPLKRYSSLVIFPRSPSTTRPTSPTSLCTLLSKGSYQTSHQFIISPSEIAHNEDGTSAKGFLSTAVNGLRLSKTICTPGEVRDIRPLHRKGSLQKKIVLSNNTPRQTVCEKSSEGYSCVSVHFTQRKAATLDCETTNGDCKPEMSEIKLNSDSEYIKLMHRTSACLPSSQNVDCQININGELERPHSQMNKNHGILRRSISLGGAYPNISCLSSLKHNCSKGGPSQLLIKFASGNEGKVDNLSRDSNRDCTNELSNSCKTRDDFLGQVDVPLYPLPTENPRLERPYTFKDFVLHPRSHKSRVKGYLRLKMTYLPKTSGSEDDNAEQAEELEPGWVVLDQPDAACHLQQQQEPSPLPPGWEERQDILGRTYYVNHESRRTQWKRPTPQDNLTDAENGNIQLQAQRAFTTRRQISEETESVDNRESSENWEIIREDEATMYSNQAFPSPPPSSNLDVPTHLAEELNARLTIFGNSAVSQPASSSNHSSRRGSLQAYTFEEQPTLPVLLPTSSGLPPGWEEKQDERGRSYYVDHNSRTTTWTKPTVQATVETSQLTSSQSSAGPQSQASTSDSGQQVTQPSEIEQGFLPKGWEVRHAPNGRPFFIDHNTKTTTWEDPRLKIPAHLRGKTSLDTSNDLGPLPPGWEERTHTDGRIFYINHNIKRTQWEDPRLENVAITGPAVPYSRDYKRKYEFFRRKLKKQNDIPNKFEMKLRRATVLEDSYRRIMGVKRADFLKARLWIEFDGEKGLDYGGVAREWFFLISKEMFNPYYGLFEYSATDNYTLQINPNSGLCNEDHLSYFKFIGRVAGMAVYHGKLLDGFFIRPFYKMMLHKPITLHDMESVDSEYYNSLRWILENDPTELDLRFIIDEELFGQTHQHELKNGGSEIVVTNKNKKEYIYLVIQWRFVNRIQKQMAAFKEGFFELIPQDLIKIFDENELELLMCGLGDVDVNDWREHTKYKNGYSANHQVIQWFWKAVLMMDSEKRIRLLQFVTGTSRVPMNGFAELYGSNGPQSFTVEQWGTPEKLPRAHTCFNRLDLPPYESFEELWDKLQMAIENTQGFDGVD

T2: NEDD4L, endogenous in HEK293T, Q96PU5
T2 chain: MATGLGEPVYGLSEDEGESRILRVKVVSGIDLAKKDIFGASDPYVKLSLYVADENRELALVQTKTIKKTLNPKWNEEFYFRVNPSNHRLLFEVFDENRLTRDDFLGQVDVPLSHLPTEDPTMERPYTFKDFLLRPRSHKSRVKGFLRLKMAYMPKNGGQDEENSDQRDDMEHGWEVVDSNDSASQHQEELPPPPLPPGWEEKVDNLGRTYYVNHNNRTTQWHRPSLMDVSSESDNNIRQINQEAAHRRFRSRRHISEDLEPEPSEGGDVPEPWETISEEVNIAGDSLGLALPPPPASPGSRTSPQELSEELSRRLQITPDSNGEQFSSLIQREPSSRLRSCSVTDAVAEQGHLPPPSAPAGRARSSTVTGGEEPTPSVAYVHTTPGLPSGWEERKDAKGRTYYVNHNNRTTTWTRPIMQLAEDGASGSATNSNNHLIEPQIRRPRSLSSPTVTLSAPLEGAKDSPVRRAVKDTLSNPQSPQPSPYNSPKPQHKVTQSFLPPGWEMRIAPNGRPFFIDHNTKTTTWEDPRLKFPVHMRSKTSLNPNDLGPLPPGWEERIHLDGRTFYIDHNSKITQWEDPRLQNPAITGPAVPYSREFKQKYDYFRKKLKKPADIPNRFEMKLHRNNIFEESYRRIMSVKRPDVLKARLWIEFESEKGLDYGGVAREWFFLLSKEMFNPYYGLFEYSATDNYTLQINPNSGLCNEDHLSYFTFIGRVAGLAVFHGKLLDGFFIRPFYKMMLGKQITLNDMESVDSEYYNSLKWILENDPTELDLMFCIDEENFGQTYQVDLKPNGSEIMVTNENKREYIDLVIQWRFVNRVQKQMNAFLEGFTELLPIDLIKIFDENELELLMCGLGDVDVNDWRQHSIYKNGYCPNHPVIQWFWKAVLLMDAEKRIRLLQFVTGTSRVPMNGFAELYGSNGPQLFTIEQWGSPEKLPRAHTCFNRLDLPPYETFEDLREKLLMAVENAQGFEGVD

T3: YFP-NEDD4, P46934
T3 chain: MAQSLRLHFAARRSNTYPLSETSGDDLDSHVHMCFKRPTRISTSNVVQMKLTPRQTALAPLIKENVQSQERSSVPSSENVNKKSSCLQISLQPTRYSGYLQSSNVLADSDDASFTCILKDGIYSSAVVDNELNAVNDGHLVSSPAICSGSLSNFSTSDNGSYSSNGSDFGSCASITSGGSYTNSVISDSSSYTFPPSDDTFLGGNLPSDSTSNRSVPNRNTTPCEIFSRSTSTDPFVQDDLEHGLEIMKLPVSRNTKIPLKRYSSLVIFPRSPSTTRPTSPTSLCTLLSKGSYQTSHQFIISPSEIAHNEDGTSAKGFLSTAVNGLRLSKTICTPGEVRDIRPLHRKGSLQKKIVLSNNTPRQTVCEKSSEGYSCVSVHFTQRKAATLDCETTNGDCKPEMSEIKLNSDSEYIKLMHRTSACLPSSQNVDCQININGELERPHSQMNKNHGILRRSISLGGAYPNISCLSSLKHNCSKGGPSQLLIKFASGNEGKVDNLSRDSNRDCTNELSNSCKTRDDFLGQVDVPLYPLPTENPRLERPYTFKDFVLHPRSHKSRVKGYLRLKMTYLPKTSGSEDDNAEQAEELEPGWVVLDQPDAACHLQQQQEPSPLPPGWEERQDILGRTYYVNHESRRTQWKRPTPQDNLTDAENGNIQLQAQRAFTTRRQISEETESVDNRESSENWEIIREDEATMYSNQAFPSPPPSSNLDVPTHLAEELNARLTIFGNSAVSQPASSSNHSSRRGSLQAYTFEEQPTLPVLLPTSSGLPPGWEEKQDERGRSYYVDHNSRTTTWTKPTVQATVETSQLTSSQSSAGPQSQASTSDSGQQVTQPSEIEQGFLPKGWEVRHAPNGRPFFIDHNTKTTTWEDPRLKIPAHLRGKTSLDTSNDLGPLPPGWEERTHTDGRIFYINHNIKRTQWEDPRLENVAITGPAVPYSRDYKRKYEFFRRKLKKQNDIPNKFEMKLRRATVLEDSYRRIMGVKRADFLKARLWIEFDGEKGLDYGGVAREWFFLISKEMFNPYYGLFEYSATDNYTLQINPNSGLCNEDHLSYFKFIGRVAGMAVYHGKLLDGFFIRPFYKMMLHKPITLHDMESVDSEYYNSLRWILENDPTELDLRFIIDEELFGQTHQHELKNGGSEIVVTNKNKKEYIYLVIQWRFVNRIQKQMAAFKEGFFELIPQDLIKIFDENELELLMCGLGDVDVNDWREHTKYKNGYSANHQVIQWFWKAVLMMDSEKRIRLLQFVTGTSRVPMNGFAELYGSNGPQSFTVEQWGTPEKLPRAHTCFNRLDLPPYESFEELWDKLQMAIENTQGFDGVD


How the values were obtained:
[1] = target: T1, NEDD4, endogenous in HEK293T, P46934; assay: co-immunoprecipitation of ALFA-TXNIP, label-free quantitative interactome (mass spectrometry); conditions: chain shown with the change, immunoprecipitated from HEK293T cells, n = 3, read off a plot; for response (normalized abundance): abundances normalized to unspecific background binding to empty beads, scatter plot
[2] = target: WWP2, endogenous in HEK293T, O00308; assay: as above; conditions: chain shown with the change, immunoprecipitated from HEK293T cells, n = 3, read off a plot; for response (normalized abundance): abundances normalized to unspecific background binding to empty beads, scatter plot
[3] = target: HECW2, endogenous in HEK293T, Q9P2P5; assay: as above; conditions: chain shown with the change, immunoprecipitated from HEK293T cells, n = 3, read off a plot; for response (normalized abundance): abundances normalized to unspecific background binding to empty beads, scatter plot
[4] = target: T2, NEDD4L, endogenous in HEK293T, Q96PU5; assay: as above; conditions: chain shown with the change, immunoprecipitated from HEK293T cells, n = 3, read off a plot; for response: histogram, parent: est. 1.1e10
YFP-NEDD4, P46934 = target: T3, YFP-NEDD4, P46934; assay: bead binding assay, fluorescence microscopy of YFP-NEDD4 on ALFA-TXNIP beads; conditions: chain shown with the change, value is the box-plot median, n = 40 beads, lysate of HEK293T cells over-expressing YFP-NEDD4, ctrl beads est. 20, parent: est. 38, read off a plot
[5] = abundances normalized to unspecific background binding to empty beads

HECW2, endogenous in HEK293T, Q9P2P5, sequence (Q9P2P5 whole entry): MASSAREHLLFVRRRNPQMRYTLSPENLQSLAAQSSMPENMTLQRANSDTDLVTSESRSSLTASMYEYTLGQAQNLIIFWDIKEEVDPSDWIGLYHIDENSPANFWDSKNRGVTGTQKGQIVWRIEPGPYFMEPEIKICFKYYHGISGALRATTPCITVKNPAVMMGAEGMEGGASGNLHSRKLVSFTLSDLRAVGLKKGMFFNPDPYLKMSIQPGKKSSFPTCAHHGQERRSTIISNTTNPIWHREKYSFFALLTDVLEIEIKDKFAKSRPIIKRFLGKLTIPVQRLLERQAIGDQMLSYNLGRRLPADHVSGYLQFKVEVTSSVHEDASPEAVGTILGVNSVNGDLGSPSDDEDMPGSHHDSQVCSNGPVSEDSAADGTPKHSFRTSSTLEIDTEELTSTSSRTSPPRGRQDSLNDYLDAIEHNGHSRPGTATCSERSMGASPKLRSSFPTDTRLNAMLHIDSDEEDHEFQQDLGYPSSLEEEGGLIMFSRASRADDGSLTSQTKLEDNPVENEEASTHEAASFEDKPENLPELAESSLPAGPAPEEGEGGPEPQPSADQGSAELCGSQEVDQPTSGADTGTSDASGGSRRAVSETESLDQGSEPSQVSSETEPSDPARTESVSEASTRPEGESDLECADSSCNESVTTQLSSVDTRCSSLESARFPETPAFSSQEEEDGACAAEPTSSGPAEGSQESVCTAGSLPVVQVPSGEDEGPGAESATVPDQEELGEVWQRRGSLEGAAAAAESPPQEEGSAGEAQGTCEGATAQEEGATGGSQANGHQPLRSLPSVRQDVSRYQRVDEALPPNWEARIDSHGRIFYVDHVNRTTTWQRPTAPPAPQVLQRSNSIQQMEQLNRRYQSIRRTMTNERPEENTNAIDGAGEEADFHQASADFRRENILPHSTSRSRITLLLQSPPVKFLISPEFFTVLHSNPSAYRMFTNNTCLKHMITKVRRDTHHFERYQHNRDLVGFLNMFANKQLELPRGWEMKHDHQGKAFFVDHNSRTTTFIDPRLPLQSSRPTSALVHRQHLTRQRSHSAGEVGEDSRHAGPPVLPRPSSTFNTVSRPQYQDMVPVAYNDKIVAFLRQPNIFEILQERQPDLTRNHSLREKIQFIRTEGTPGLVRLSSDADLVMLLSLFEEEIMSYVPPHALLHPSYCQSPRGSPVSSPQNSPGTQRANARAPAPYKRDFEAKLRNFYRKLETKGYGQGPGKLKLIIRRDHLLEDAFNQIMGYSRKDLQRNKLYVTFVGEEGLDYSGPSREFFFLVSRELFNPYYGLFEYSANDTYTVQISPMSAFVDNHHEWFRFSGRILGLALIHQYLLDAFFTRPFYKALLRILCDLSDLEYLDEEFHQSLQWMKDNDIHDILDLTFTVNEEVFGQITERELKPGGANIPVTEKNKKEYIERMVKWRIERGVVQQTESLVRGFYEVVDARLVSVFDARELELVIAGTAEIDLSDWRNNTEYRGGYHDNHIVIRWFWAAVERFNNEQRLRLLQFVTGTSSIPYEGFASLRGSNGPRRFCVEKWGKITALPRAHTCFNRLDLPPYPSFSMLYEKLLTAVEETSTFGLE
WWP2, endogenous in HEK293T, O00308, sequence (O00308 whole entry): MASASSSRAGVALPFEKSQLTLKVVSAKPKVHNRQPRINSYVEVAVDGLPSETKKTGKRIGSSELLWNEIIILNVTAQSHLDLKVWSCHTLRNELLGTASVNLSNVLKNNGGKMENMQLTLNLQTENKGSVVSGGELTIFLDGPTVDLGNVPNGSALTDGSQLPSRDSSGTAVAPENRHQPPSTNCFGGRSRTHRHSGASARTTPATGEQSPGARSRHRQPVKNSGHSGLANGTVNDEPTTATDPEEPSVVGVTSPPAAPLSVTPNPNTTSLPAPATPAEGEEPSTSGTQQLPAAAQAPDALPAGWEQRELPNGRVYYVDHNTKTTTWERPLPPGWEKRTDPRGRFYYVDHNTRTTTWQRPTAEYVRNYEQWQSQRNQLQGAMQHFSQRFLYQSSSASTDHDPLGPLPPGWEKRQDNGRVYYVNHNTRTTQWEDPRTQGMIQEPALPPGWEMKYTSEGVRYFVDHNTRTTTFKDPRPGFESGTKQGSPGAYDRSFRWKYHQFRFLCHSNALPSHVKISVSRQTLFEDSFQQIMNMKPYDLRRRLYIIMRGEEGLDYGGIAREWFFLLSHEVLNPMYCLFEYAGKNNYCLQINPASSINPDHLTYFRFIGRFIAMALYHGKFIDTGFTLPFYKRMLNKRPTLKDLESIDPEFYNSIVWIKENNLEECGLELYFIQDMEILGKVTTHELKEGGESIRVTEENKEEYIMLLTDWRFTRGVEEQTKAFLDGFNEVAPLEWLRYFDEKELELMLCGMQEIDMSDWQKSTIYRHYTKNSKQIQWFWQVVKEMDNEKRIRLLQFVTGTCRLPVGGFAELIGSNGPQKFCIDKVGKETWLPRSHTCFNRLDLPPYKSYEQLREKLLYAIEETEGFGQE

Binder | response (normalized abundance) ([1]; parent: est. 4.5e8) | other: log2 PPxY331/WT [1] | response (normalized abundance) ([2]; parent: est. 1.4e9) | other: log2 PPxY331/WT [2] | response (normalized abundance) ([3]; parent: est. 1.0e8) | other: log2 PPxY331/WT [3] | response [4, 5] | other: log2 PPxY331/WT [4] | response (YFP-NEDD4, P46934; printed p=0.2365 against ALFA-TXNIP) | response (normalized abundance) ([1]; parent: est. 5.0e8) | other: log2 PPxY/WT ([1]; volcano plot) | response (normalized abundance) ([2]; parent: est. 1.3e9) | response (normalized abundance) ([3]; parent: est. 1.3e8) | response (normalized abundance) ([4]; abundances normalized to unspecific background binding to empty beads, scatter plot, parent: est. 1.0e10) | other: log2 PPxY/WT ([4]; volcano plot) | response (YFP-NEDD4, P46934; printed p<0.0001 against ALFA-TXNIP)
ALFA-tagged TXNIP (thioredoxin interacting protein), expressed in HEK293T, Q9H3M7 PPCY331AACA (protein) MVMFKKIKSFEVVFNDPEKVYGSGEKVAGRVIVEVCEVTRVKAVRILACGVAKVLWMQGSQQCKQTSEYLRYEDTLLLEDQPTGENEMVIMRPGNKYEYKFGFELPQGPLGTSFKGKYGCVDYWVKAFLDRPSQPTQETKKNFEVVDLVDVNTPDLMAPVSAKKEKKVSCMFIPDGRVSVSARIDRKGFCEGDEISIHADFENTCSRIVVPKAAIVARHTYLANGQTKVLTQKLSSVRGNHIISGTCASWRGKSLRVQKIRPSILGCNILRVEYSLLIYVSVPGSKKVILDLPLVIGSRSGLSSRTSSMASRTSSEMSWVDLNIPDTPEAAACAMDVIPEDHRLESPTTPLLDDMDGSQDSPIFMYAPEFKFMPPPTYTEVDPCILNNNVQ | 1.2e+08 | -1.7 log2 | 4.5e+08 | -1.8 log2 | 1.3e+06 | -4.1 log2 | 6.6e+09 abundance | -0.7 log2 | 35 A.U | – | – | – | – | – | – | –
ALFA-tagged TXNIP (thioredoxin interacting protein), expressed in HEK293T, Q9H3M7 PPCY331AACA; PPTY375AATA (protein) MVMFKKIKSFEVVFNDPEKVYGSGEKVAGRVIVEVCEVTRVKAVRILACGVAKVLWMQGSQQCKQTSEYLRYEDTLLLEDQPTGENEMVIMRPGNKYEYKFGFELPQGPLGTSFKGKYGCVDYWVKAFLDRPSQPTQETKKNFEVVDLVDVNTPDLMAPVSAKKEKKVSCMFIPDGRVSVSARIDRKGFCEGDEISIHADFENTCSRIVVPKAAIVARHTYLANGQTKVLTQKLSSVRGNHIISGTCASWRGKSLRVQKIRPSILGCNILRVEYSLLIYVSVPGSKKVILDLPLVIGSRSGLSSRTSSMASRTSSEMSWVDLNIPDTPEAAACAMDVIPEDHRLESPTTPLLDDMDGSQDSPIFMYAPEFKFMPAATATEVDPCILNNNVQ | – | – | – | – | – | – | 3.8e+09 abundance | – | – | 1e+08 | -2.2 log2 | 800000 | 80000 | 4e+09 | -1.5 log2 | 19 A.U
